According to patent US5766897A, “Cysteine-pegylated proteins” (Incyte Pharmaceuticals, Inc., priority 1995, dated 1998):

Target: Thrombin (Homo sapiens, UniProt P00734)
Test: thrombin inhibition activity assay (D.4), specific activity
Assay type: biochemical
Details: for ACTIVITY, AFTER PEG MODIFICATION: after cysteine-PEGylation with Maleimido-PEG; for REL TO WT, BEFORE PEG MODIFICATION: activity relative to wild type PN-1; for REL TO ACTIVITY BEFORE PEG, AFTER PEG MODIFICATION: cysteine-PEGylated protein relative to same protein before PEGylation; for REL TO WT, AFTER PEG MODIFICATION: cysteine-PEGylated protein relative to wild type PN-1
Experimental: Refolded or soluble protein was tested for capacity to inhibit thrombin in a standard assay. Briefly, serial 2-fold dilutions of PN-1 variant were added to microtiter plate wells (50 μl/well), followed by 50 μl of a 30 μg/ml heparin solution, followed by 1 NIH unit of thrombin in 50 μl. These were allowed to incubate at 25° C. for 15 minutes. Residual thrombin activity was measured by the addition of 50 μl S-2238 (Kabi Pharmaceuticals) at 0.625 mg/ml. PN-1 variants were tested for their ability to inhibit urokinase using the substrate S-2444, plasmin using the substrate S-2390, tPA using the substrate S2288, Factor Xa using the substrate S-2222 or S-2765, kallikrein using the substrate S-2302, human neutrophil elastase using s-AAPV-pna (Sigma), cathepsin G using s-AAPF-pna (Sigma) in a similar manner, with or without the addition of heparin.
Each of the PN-1 site-directed mutant proteins, as well as wild type PN-1, were modified by cysteine-PEGylation using the protocol described in F.2. The activity of wild type PN-1, each of the PN-1 site-directed mutants, and the cysteine-PEGylated wild type and mutant proteins was determined using the assay described in D.4.

Molecule	specific activity vs thrombin and association kinetics, including rate enhancement effect of heparin (compared with authentic PN-1)	ACTIVITY, AFTER PEG MODIFICATION	SPECIFIC ACTIVITY, BEFORE PEG MODIFICATION	REL TO WT, BEFORE PEG MODIFICATION	REL TO ACTIVITY BEFORE PEG, AFTER PEG MODIFICATION	REL TO WT, AFTER PEG MODIFICATION
PN-1 produced in insect cells: glycosylated PN-1 produced in insect cells using a baculovirus expression system (protein, UniProt P07093 20-398, looked up, insect cell glycosylated, glycosylated PN-1 produced in insect cells using a baculovirus expression system) Glia-derived nexin: SHFNPLSLEELGSNTGIQVFNQIVKSRPHDNIVISPHGIASVLGMLQLGADGRTKKQLAMVMRYGVNGVGKILKKINKAIVSKKNKDIVTVANAVFVKNASEIEVPFVTRNKDVFQCEVRNVNFEDPASACDSINAWVKNETRDMIDNLLSPDLIDGVLTRLVLVNAVYFKGLWKSRFQPENTKKRTFVAADGKSYQVPMLAQLSVFRCGSTSAPNDLWYNFIELPYHGESISMLIALPTESSTPLSAIIPHISTKTIDSWMSIMVPKRVQVILPKFTAVAQTDLKEPLKVLGITDMFDSSKANFAKITTGSENLHVSHILQKAKIEVSEDGTKASAATTAILIARSSPPWFIVDRPFLFFIRHNPTGAVLFMGQINKP	indistinguishable from authentic PN-1	–	–	–	–	–
R63C (conjugate, UniProt P07093 20-398, looked up, variant R63C, PEG) Glia-derived nexin: SHFNPLSLEELGSNTGIQVFNQIVKSRPHDNIVISPHGIASVLGMLQLGADGRTKKQLAMVMCYGVNGVGKILKKINKAIVSKKNKDIVTVANAVFVKNASEIEVPFVTRNKDVFQCEVRNVNFEDPASACDSINAWVKNETRDMIDNLLSPDLIDGVLTRLVLVNAVYFKGLWKSRFQPENTKKRTFVAADGKSYQVPMLAQLSVFRCGSTSAPNDLWYNFIELPYHGESISMLIALPTESSTPLSAIIPHISTKTIDSWMSIMVPKRVQVILPKFTAVAQTDLKEPLKVLGITDMFDSSKANFAKITTGSENLHVSHILQKAKIEVSEDGTKASAATTAILIARSSPPWFIVDRPFLFFIRHNPTGAVLFMGQINKP	–	0.125 NIH units of thrombin inhibited per μg PN1 (variant)	0.050 NIH units of thrombin inhibited per μg PN1 (variant)	0.10	2.5	0.25
G52C (conjugate, UniProt P07093 20-398, looked up, variant G52C, PEG) Glia-derived nexin: SHFNPLSLEELGSNTGIQVFNQIVKSRPHDNIVISPHGIASVLGMLQLGADCRTKKQLAMVMRYGVNGVGKILKKINKAIVSKKNKDIVTVANAVFVKNASEIEVPFVTRNKDVFQCEVRNVNFEDPASACDSINAWVKNETRDMIDNLLSPDLIDGVLTRLVLVNAVYFKGLWKSRFQPENTKKRTFVAADGKSYQVPMLAQLSVFRCGSTSAPNDLWYNFIELPYHGESISMLIALPTESSTPLSAIIPHISTKTIDSWMSIMVPKRVQVILPKFTAVAQTDLKEPLKVLGITDMFDSSKANFAKITTGSENLHVSHILQKAKIEVSEDGTKASAATTAILIARSSPPWFIVDRPFLFFIRHNPTGAVLFMGQINKP	–	0.05 NIH units of thrombin inhibited per μg PN1 (variant)	0.024 NIH units of thrombin inhibited per μg PN1 (variant)	0.048	2.1	0.1
D147C (conjugate, UniProt P07093 20-398, looked up, variant D147C, PEG) Glia-derived nexin: SHFNPLSLEELGSNTGIQVFNQIVKSRPHDNIVISPHGIASVLGMLQLGADGRTKKQLAMVMRYGVNGVGKILKKINKAIVSKKNKDIVTVANAVFVKNASEIEVPFVTRNKDVFQCEVRNVNFEDPASACDSINAWVKNETRDMICNLLSPDLIDGVLTRLVLVNAVYFKGLWKSRFQPENTKKRTFVAADGKSYQVPMLAQLSVFRCGSTSAPNDLWYNFIELPYHGESISMLIALPTESSTPLSAIIPHISTKTIDSWMSIMVPKRVQVILPKFTAVAQTDLKEPLKVLGITDMFDSSKANFAKITTGSENLHVSHILQKAKIEVSEDGTKASAATTAILIARSSPPWFIVDRPFLFFIRHNPTGAVLFMGQINKP	–	0.125 NIH units of thrombin inhibited per μg PN1 (variant)	0.063 NIH units of thrombin inhibited per μg PN1 (variant)	0.125	2	0.25
D192C (conjugate, UniProt P07093 20-398, looked up, variant D192C, PEG) Glia-derived nexin: SHFNPLSLEELGSNTGIQVFNQIVKSRPHDNIVISPHGIASVLGMLQLGADGRTKKQLAMVMRYGVNGVGKILKKINKAIVSKKNKDIVTVANAVFVKNASEIEVPFVTRNKDVFQCEVRNVNFEDPASACDSINAWVKNETRDMIDNLLSPDLIDGVLTRLVLVNAVYFKGLWKSRFQPENTKKRTFVAACGKSYQVPMLAQLSVFRCGSTSAPNDLWYNFIELPYHGESISMLIALPTESSTPLSAIIPHISTKTIDSWMSIMVPKRVQVILPKFTAVAQTDLKEPLKVLGITDMFDSSKANFAKITTGSENLHVSHILQKAKIEVSEDGTKASAATTAILIARSSPPWFIVDRPFLFFIRHNPTGAVLFMGQINKP	–	0.91 NIH units of thrombin inhibited per μg PN1 (variant)	0.045 NIH units of thrombin inhibited per μg PN1 (variant)	0.091	2	0.18
N99C (conjugate, UniProt P07093 20-398, looked up, variant N99C, PEG) Glia-derived nexin: SHFNPLSLEELGSNTGIQVFNQIVKSRPHDNIVISPHGIASVLGMLQLGADGRTKKQLAMVMRYGVNGVGKILKKINKAIVSKKNKDIVTVANAVFVKCASEIEVPFVTRNKDVFQCEVRNVNFEDPASACDSINAWVKNETRDMIDNLLSPDLIDGVLTRLVLVNAVYFKGLWKSRFQPENTKKRTFVAADGKSYQVPMLAQLSVFRCGSTSAPNDLWYNFIELPYHGESISMLIALPTESSTPLSAIIPHISTKTIDSWMSIMVPKRVQVILPKFTAVAQTDLKEPLKVLGITDMFDSSKANFAKITTGSENLHVSHILQKAKIEVSEDGTKASAATTAILIARSSPPWFIVDRPFLFFIRHNPTGAVLFMGQINKP	–	0.50 NIH units of thrombin inhibited per μg PN1 (variant)	0.20 NIH units of thrombin inhibited per μg PN1 (variant)	0.40	2.5	1.0
E125C (conjugate, UniProt P07093 20-398, looked up, variant E125C, PEG) Glia-derived nexin: SHFNPLSLEELGSNTGIQVFNQIVKSRPHDNIVISPHGIASVLGMLQLGADGRTKKQLAMVMRYGVNGVGKILKKINKAIVSKKNKDIVTVANAVFVKNASEIEVPFVTRNKDVFQCEVRNVNFCDPASACDSINAWVKNETRDMIDNLLSPDLIDGVLTRLVLVNAVYFKGLWKSRFQPENTKKRTFVAADGKSYQVPMLAQLSVFRCGSTSAPNDLWYNFIELPYHGESISMLIALPTESSTPLSAIIPHISTKTIDSWMSIMVPKRVQVILPKFTAVAQTDLKEPLKVLGITDMFDSSKANFAKITTGSENLHVSHILQKAKIEVSEDGTKASAATTAILIARSSPPWFIVDRPFLFFIRHNPTGAVLFMGQINKP	–	0.15 NIH units of thrombin inhibited per μg PN1 (variant)	0.095 NIH units of thrombin inhibited per μg PN1 (variant)	0.19	1.57	0.3
N85C (conjugate, UniProt P07093 20-398, looked up, variant N85C, PEG) Glia-derived nexin: SHFNPLSLEELGSNTGIQVFNQIVKSRPHDNIVISPHGIASVLGMLQLGADGRTKKQLAMVMRYGVNGVGKILKKINKAIVSKKCKDIVTVANAVFVKNASEIEVPFVTRNKDVFQCEVRNVNFEDPASACDSINAWVKNETRDMIDNLLSPDLIDGVLTRLVLVNAVYFKGLWKSRFQPENTKKRTFVAADGKSYQVPMLAQLSVFRCGSTSAPNDLWYNFIELPYHGESISMLIALPTESSTPLSAIIPHISTKTIDSWMSIMVPKRVQVILPKFTAVAQTDLKEPLKVLGITDMFDSSKANFAKITTGSENLHVSHILQKAKIEVSEDGTKASAATTAILIARSSPPWFIVDRPFLFFIRHNPTGAVLFMGQINKP	–	0.040 NIH units of thrombin inhibited per μg PN1 (variant)	0.033 NIH units of thrombin inhibited per μg PN1 (variant)	0.066	1.2	0.080
S1C (conjugate, UniProt P07093 20-398, looked up, variant S1C, PEG) Glia-derived nexin: CHFNPLSLEELGSNTGIQVFNQIVKSRPHDNIVISPHGIASVLGMLQLGADGRTKKQLAMVMRYGVNGVGKILKKINKAIVSKKNKDIVTVANAVFVKNASEIEVPFVTRNKDVFQCEVRNVNFEDPASACDSINAWVKNETRDMIDNLLSPDLIDGVLTRLVLVNAVYFKGLWKSRFQPENTKKRTFVAADGKSYQVPMLAQLSVFRCGSTSAPNDLWYNFIELPYHGESISMLIALPTESSTPLSAIIPHISTKTIDSWMSIMVPKRVQVILPKFTAVAQTDLKEPLKVLGITDMFDSSKANFAKITTGSENLHVSHILQKAKIEVSEDGTKASAATTAILIARSSPPWFIVDRPFLFFIRHNPTGAVLFMGQINKP	–	0.25 NIH units of thrombin inhibited per μg PN1 (variant)	0.10 NIH units of thrombin inhibited per μg PN1 (variant)	0.20	2.5	0.50
